Target: T1, hCHCHD2 WT expressed in CHCHD2-/- MEFs (human), Q9Y6H1
T1 chain: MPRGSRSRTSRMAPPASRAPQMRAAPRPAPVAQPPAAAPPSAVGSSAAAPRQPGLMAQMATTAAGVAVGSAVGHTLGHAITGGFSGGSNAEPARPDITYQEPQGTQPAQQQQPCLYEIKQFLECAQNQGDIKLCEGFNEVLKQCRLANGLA
Assay: cross-linking; hCHCHD2-expressing MEFs treated with or without 0.5 μg/ml DSP in PBS for 20 min at RT, lysed, western blot with anti-CHCHD2; ratio of monomer signals to total signals
Details: remark: other sources report otherwise

B1: hCHCHD2 WT expressed in CHCHD2-/- MEFs, Q9Y6H1 1-151 (natural protein)
chain: T1 chain
In the case of B1, the monomer form as share of total CHCHD2 signals (% of total CHCHD2 signals) is reported as less than 50 and the stoichiometry N is reported as 2.

Reference: publication PMC5467237
